Values joined by “and” are separate entries in the source; they are usually repeats but may differ in a detail not shown here. Identical values can stand only once. No end group written: not given here.
T1: LNX2 PDZ2 (human, UniProt Q8N448 334-426)
T1 construct: second PDZ domain of human LNX2, residues 334-426, numbering of the full-length human protein; […]; Labelled on amines with RED-NHS dye for MST; also called LNX2-2; not shown: His tag, N-terminal, cleaved
T1 sequence (looked up): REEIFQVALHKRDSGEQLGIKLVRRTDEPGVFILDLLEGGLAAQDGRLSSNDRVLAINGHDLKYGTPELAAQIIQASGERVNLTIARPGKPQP

T2: MPP5 PDZ (human, UniProt Q8N3R9 238-336)
T2 construct: PDZ domain of human MPP5 (PALS1), residues 238-336, numbering of the full-length human protein; […]; Labelled on amines with RED-NHS dye for MST; also called PALS1 PDZ; not shown: GST, N-terminal, cleaved
T2 sequence (looked up): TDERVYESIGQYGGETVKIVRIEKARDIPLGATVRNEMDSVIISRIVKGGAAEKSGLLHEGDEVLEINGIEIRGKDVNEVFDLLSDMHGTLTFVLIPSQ

T3: MLLT4 PDZ (human, UniProt P55196 1002-1095)
T3 construct: PDZ domain of human MLLT4 (Afadin); the residues named in the structure (1014-1022, 1071) fit 1002-1095; also called Afadin PDZ; not shown: His tag, N-terminal, cleaved; MBP, N-terminal, cleaved
T3 sequence (looked up): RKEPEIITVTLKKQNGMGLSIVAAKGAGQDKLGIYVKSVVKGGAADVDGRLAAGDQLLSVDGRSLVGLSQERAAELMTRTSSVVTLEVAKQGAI

B1: ZO-1 PDZ2 (domain or fragment, human, UniProt Q07157 184-264, looked up)
chain: PTKVTLVKSRKNEEYGLRLASHIFVKEISQDSLAARDGNIQEGDVVLKINGTVTENMSLTDAKTLIERSKGKLKMVVQRDE
notes: second PDZ domain of human ZO-1 (TJP1), residues 184-264, numbering of the full-length human protein; […]; Labelled on amines with RED-NHS dye for MST; also called TJP1 PDZ2; ZO-1-2

Experiments:
GST-PDZ PARD3 = test: GST pull-down, GST-PDZ PARD3; type: binding, human; settings: HEK293 cell lysates; 2 h at 4°C with glutathione resins; anti-GFP Western blot
Description: (§1) To investigate whether the five PDZ domains can interact with the full-length E protein and in a PBM-dependent manner, glutathione S-transferase (GST) pull-down assays were performed with the purified GST-tagged PDZ domains of ZO-1, LNX2, PARD3, MLLT4, and MPP5 and the lysates of HEK293 cells overexpressing constructs of GFP alone, GFP-tagged wild-type full-length E protein (GFP-E-WT), GFP-tagged full-length E protein with the PBM mutated with glycines (GFP-E-GGGG), and GFP-tagged cytoplasmic tail of protein E (last 12 residues; GFP-E last 12 aa) designated 1, 2, 3, and 4 in Figure 2 (Figure 2A). The GFP-tagged construct expression was assessed by examining the fluorescence emitted by the GFP by microscopy and by Western blot on the cell lysates using anti-GFP antibody (Figure 2B). GST alone was used as a negative control. We confirmed by using Ponceau S staining that equal amounts of GST-tagged protein constructs were bound to the GST resin (Figure 2C).
(§2) Glutathione S-transferase alone and its fusion with PDZ ZO1, PDZ LNX2, PDZ MLLT4, PDZ MPP5, and PDZ PARD3 are used as baits and were immobilized on glutathione beads and tested for their ability to pull down GFP alone, GFP-E-WT, GFP-E-GGGG, and GFP-E last 12 aa by Western blot using the anti-GFP antibody. After washing, identical amounts of beads were analyzed for the presence of GFP-tagged proteins. […]

GST-PDZ MPP5 = test: GST pull-down, GST-PDZ MPP5; type: binding, human; settings: HEK293 cell lysates; 2 h at 4°C with glutathione resins; anti-GFP Western blot
Description: as §1, §2

GST-PDZ ZO1 = test: GST pull-down, GST-PDZ ZO1; type: binding, human; settings: HEK293 cell lysates; 2 h at 4°C with glutathione resins; anti-GFP Western blot
Description: as §1, §2

GST-PDZ MLLT4 = test: GST pull-down, GST-PDZ MLLT4; type: binding, human; settings: HEK293 cell lysates; 2 h at 4°C with glutathione resins; anti-GFP Western blot
Description: as §1, §2

GST alone = test: GST pull-down, GST alone (negative control); type: binding; settings: GST alone as bait; HEK293 cell lysates; anti-GFP Western blot
Description: as §1, §2

GST-PDZ LNX2 = test: GST pull-down, GST-PDZ LNX2; type: binding, human; settings: HEK293 cell lysates; 2 h at 4°C with glutathione resins; anti-GFP Western blot
Description: as §1, §2

[1] = target: the molecule itself; test: AUC; sedimentation velocity, ZO-1-PDZ2 at 1 mg/mL; Tris 50 mM pH 7.5, NaCl 150 mM, TCEP 0.5 mM; 20°C, 42,000 rpm
[2] = Analytical ultracentrifugation; type: physicochemical; settings: 1 mg/mL, 20°C; for Oligomeric state in solution: AUC; for Oligomeric state in solution / Frictional ratio f/f0 (average) / Molecular weight estimated by analytical ultracentrifugation (AUC) / Peak proportion: pH 7.5; for Frictional ratio f/f0 (average): average over peaks; for Sedimentation coefficient: Tris 50 mM pH 7.5, NaCl 150 mM, TCEP 0.5 mM, 42,000 rpm, MLLT4-PDZ with excess of E PBM peptide
Description: ZO-1-PDZ2 and MLLT4-PDZ were prepared at 1 mg/mL. MLLT4-PDZ was prepared with an excess of protein E PBM peptide. Samples were prepared in Tris 50 mM pH 7.5, NaCl 150 mM, and TCEP 0.5 mM. A sample of 400 μl was loaded into 1.2-cm double-sector cells between two sapphire windows. […] Sedimentation profiles were monitored over time by absorbance measurement at 280 nm and by interferometry. The data were analyzed using the continuous size distribution model c(s) of the Sedfit 16.36 software. All distributions were calculated with a floating frictional ratio f/f0 and a maximum entropy regularization procedure with a confidence level of 0.68. The buffer viscosity (η = 0.01031 Poise), the density (ρ = 1.0059), and the partial specific volume of 0.746 for MLLT4 and 0.736 for Z0-1 were estimated at 20°C from the amino acid sequences at 20°C using the software SEDTERP 3.0.3.^3

LNX2 PDZ2 = target: T1, LNX2 PDZ2; test: MST; […]; PBS tween 20 0.05%; room temperature; […]; duplicate; settings: both partners purified
MPP5 PDZ = target: T2, MPP5 PDZ; test: as above; settings: both partners purified
PARD3 PDZ3 = target: T4, PARD3 PDZ3 (human, UniProt Q8TEW0 582-685); test: as above; settings: both partners purified
T4 construct: third PDZ domain of human PARD3, residues 582-685, numbering of the full-length human protein; […]; Labelled on amines with RED-NHS dye for MST; also called PARDD3-3; not shown: His tag, N-terminal, cleaved

MLLT4 PDZ = target: T3, MLLT4 PDZ; test: as above; settings: both partners purified
ZO-1 PDZ2 = target: B1; test: as above; settings: both partners purified

T4 sequence (Q8TEW0 582-685): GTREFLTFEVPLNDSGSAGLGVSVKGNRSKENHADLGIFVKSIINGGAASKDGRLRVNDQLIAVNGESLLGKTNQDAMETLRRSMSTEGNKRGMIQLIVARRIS

Molecule	Oligomeric state in solution [2]	Frictional ratio f/f0 (average) [2]	Sedimentation coefficient ([2]; peak 1)	Molecular weight estimated by analytical ultracentrifugation (AUC) ([2]; peak 1)	Peak proportion ([2]; peak 1)	Sedimentation coefficient ([2]; peak 2)	Molecular weight estimated by analytical ultracentrifugation (AUC) ([2]; peak 2)	Peak proportion ([2]; peak 2)	Sedimentation coefficient ([2]; peak 3)	Molecular weight estimated by analytical ultracentrifugation (AUC) ([2]; peak 3)	other results
GFP-E last 12 aa (NLNSSRVPDLLV; also: fused to GFP, attachment end not given here)	–	–	–	–	–	–	–	–	–	–	GFP-tagged protein in bound fraction (GST-PDZ PARD3): detected in all interactions with GST-PDZ domains; GFP-tagged protein in bound fraction (GST-PDZ MPP5): detected in all interactions with GST-PDZ domains; GFP-tagged protein in bound fraction (GST-PDZ ZO1): detected in all interactions with GST-PDZ domains; GFP-tagged protein in bound fraction (GST-PDZ MLLT4): detected in all interactions with GST-PDZ domains; GFP-tagged protein in bound fraction (GST alone): not detected; GFP-tagged protein in bound fraction (GST-PDZ LNX2): detected in all interactions with GST-PDZ domains
B1	–	–	–	–	–	–	–	–	–	–	stoichiometry N [1]: 2 and ~4
ZO-1: PDZ2 domain of ZO-1, residues 184-264, at 1 mg/mL (protein, left off: His tag, N-terminal, state not stated, PDZ2 domain of ZO-1, residues 184-264, at 1 mg/mL) PTKVTLVKSRKNEEYGLRLASHIFVKEISQDSLAARDGNIQEGDVVLKINGTVTENMSLTDAKTLIERSKGKLKMVVQRDE	one dimeric form and one higher oligomeric state possibly compatible with a tetramer in solution	1.4	2.1 S	26 kDa	49%	2.8 S	40 kDa	49%	3.7 S	60 kDa	–
NLNSSRVPDLLV (also called SARS-CoV-2 WT; SARS-CoV-2 peptide E) [C-terminal SARS-CoV-2-E PBM peptide]	–	–	–	–	–	–	–	–	–	–	Kd (LNX2 PDZ2): 289 µM; Kd (MPP5 PDZ): 30 µM; Kd (PARD3 PDZ3): 341 µM; Kd (MLLT4 PDZ): 569 µM; Kd (ZO-1 PDZ2): 15 µM
MLLT4-PBM: MLLT4-PDZ prepared with an excess of protein E PBM peptide (protein, left off: His tag, N-terminal, cleaved | MBP, N-terminal, cleaved, MLLT4-PDZ prepared with an excess of protein E PBM peptide) RKEPEIITVTLKKQNGMGLSIVAAKGAGQDKLGIYVKSVVKGGAADVDGRLAAGDQLLSVDGRSLVGLSQERAAELMTRTSSVVTLEVAKQGAI	mainly monomeric in solution	1.2	0.5 S	2.8 kDa	25%	1.4 S	12 kDa	65%	2.3 S	26 kDa	Peak proportion ([2]; peak 3): 10%
